Assay results taken from IntAct's records for PubMed 23969831.

B1: Protrudin (Homo sapiens), Q5T4F4 (parent)
chain: MQTSEREGSGPELSPSVMPEAPLESPPFPTKSPAFDLFNLVLSYKRLEIYLEPLKDAGDGVRYLLRWQMPLCSLLTCLGLNVLFLTLNEGAWYSVGALMISVPALLGYLQEVCRARLPDSELMRRKYHSVRQEDLQRGRLSRPEAVAEVKSFLIQLEAFLSRLCCTCEAAYRVLHWENPVVSSQFYGALLGTVCMLYLLPLCWVLTLLNSTLFLGNVEFFRVVSEYRASLQQRMNPKQEEHAFESPPPPDVGGKDGLMDSTPALTPTEDLTPGSVEEAEEAEPDEEFKDAIEETHLVVLEDDEGAPCPAEDELALQDNGFLSKNEVLRSKVSRLTERLRKRYPTNNFGNCTGCSATFSVLKKRRSCSNCGNSFCSRCCSFKVPKSSMGATAPEAQRETVFVCASCNQTLSK
partner: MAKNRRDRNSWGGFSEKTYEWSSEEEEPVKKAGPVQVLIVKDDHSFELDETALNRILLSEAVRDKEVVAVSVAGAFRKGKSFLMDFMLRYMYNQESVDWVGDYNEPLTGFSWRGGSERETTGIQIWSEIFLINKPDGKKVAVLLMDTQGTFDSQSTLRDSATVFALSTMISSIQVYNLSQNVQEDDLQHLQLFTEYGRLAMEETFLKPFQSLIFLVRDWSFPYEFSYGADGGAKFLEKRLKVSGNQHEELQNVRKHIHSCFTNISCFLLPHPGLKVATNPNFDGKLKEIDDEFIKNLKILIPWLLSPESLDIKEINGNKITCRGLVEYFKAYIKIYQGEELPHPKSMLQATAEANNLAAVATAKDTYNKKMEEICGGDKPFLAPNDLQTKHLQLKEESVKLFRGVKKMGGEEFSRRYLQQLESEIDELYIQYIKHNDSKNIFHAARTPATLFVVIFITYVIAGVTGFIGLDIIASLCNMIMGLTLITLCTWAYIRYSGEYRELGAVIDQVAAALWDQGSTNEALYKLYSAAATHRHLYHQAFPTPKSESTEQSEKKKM
B2: Protrudin (Homo sapiens), Q5T4F4 (parent)
chain: B1 chain
B3: Atlastin-1 (Homo sapiens), Q8WXF7 (parent)
chain: B1 partner
partner: B1 chain

Variants of: B1
Conditions: with atla1_human ATL1, Q8WXF7

| effect of a mutation on the interaction | Variant |
| --- | --- |
| with no effect | G191V |

Variants of: B2
Conditions: with reep5_human REEP5, Q00765
Sequence of reep5_human REEP5, Q00765 (Q00765 whole entry): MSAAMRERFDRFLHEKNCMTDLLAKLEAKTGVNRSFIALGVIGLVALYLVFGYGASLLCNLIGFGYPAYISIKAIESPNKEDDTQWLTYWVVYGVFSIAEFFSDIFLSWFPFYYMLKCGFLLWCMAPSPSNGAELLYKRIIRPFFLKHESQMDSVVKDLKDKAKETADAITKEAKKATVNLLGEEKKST

| effect of a mutation on the interaction | Variant |
| --- | --- |
| with no effect | G191V |
| decreasing interaction strength | P200A |

Variants of: B3
Conditions: with zfy27_human ZFYVE27, Q5T4F4

| effect of a mutation on the interaction | Variant |
| --- | --- |
| with no effect | S519A |
| with no effect | G469A |
| with no effect | R495W |
| with no effect | K80A |
